Measured values from the supplement of paper PMC9732359.
± gives the uncertainty stated by the source.

Experiment: protein stability index of a GFP-peptide fusion (yeast GPS) (PSI 1-4); higher = more stable; sorted into four equal gates, so the index is relative within each strain
Summary of the method: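 Tiled 17-residue peptides from yeast proteins were fused downstream of GFP on a plasmid that also expresses Cherry, and the pooled library was carried in yeast. Mid-log cultures grown in leucine-free medium were sorted into four equal gates by GFP/Cherry fluorescence ratio. Plasmids from each gate were PCR-amplified and Illumina-sequenced, and reads were assigned to strains by barcodes. Each peptide's protein stability index is the sum, over gates, of the gate's read frequency multiplied by its gate number.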

Row | Sequence | protein stability index (doa10∆) | protein stability index (pdr5∆) | protein stability index (san1∆) | protein stability index (ubr1∆)
1 | IHQILLPTNPTLDKPNA [CSE2] | 2.56 ± 0.039 | 2.58 ± 0.041 | 2.37 ± 0.044 | 2.42 ± 0.034
2 | DMNSNLQVLKRERDGIK [SMC1] | 3.01 ± 0.093 | 2.92 ± 0.065 | 3.03 ± 0.047 | 2.78 ± 0.078
3 | MVNVPKTRKTYCKGKTC [RPL42A] | 1.42 ± 0.15 | 1.41 ± 0.1 | 1.99 ± 0.25 | 1.35 ± 0.075
4 | FWFDKLVTKILPLKKNE [YCG1] | 2.83 ± 0.21 | 3 ± 0.14 | 3.1 ± 0.15 | 2.43 ± 0.24
5 | QLYKARMSIKLLRLASK [POP1] | 1.54 ± 0.064 | 1.39 ± 0.072 | 1.4 ± 0.11 | 1.14 ± 0.048
6 | TTTSFTTSEATANDRQI [RPN4] | 2.95 ± 0.051 | 3.13 ± 0.055 | 2.55 ± 0.063 | 3.25 ± 0.042
7 | EFLYPHLNFPNVKFLRI [SNF12] | 2.21 ± 0.19 | 2.67 ± 0.27 |  | 3.15 ± 0.1
8 | CNAQPITRSVMRFNIEI [BRR2] | 2.71 ± 0.082 | 2.82 ± 0.066 | 2.77 ± 0.058 | 3.02 ± 0.064
9 | EDFRIQFKTTIKDTAND [UBP6] | 2.49 ± 0.067 | 2.47 ± 0.07 | 2.16 ± 0.063 | 2.43 ± 0.054
10 | HVRCGTAFALGIACAGK [RPN2] | 1.27 ± 0.081 | 1.58 ± 0.13 | 1.46 ± 0.23 | 1.53 ± 0.076
11 | TLKYICAECSSKLSLSR [RPC10] | 2.46 ± 0.063 | 2.51 ± 0.069 | 2.7 ± 0.057 | 2.65 ± 0.056
12 | DLESMGLTQLYKKSTEN [MED7] | 2.9 ± 0.071 | 3.13 ± 0.067 | 2.81 ± 0.067 | 2.9 ± 0.047
13 | DVVMKATEPQMVLFNIY [PRP8] | 2.03 ± 0.046 | 1.76 ± 0.049 | 1.58 ± 0.078 | 1.77 ± 0.043
14 | KSFANHTEDEQIEKKKI [SIR4] | 2.96 ± 0.14 | 2.28 ± 0.087 | 2.66 ± 0.096 | 2.13 ± 0.048
15 | PPLTSQYSTRHDAPRGL [SWI3] | 3.13 ± 0.047 | 3.19 ± 0.06 | 3.14 ± 0.05 | 3.21 ± 0.045
16 | NSGVGSAKGPEIIPLQD [MED6] | 3.35 ± 0.16 | 3.21 ± 0.088 | 3.16 ± 0.071 | 3.23 ± 0.064
17 | NNYNSRIQLMNDFTTKL [MED1] | 2.89 ± 0.075 | 2.85 ± 0.075 | 2.98 ± 0.058 | 3.08 ± 0.059
18 | LKNFLSYESLKKRKIHN [MCD1] | 1.55 ± 0.038 | 1.46 ± 0.039 | 2.12 ± 0.048 | 1.59 ± 0.034
19 | TQYATSQKTKTIQSDLN [SMC2] | 2.21 ± 0.088 | 2.34 ± 0.072 | 2.1 ± 0.11 | 2.85 ± 0.05
20 | EAEFSLRELSCCINAAF [RRP46] | 2.63 ± 0.053 | 2.83 ± 0.064 | 2.76 ± 0.047 | 2.97 ± 0.056
21 | RYDYSDEVGRRSMLTVV [YCG1] | 2.02 ± 0.067 | 1.73 ± 0.062 | 2.91 ± 0.094 | 1.97 ± 0.05
22 | IDALGTEFSKNDLEVGV [SCL1] | 2.67 ± 0.097 | 2.46 ± 0.11 | 2.49 ± 0.11 | 2.65 ± 0.08
23 | FLANHKDRLYCGKCHSV [RPS31] | 2.38 ± 0.17 | 2.61 ± 0.13 | 2.02 ± 0.16 | 2.69 ± 0.082
24 | LYLQDSNDKFVHVQLLI [SRB8] | 1.96 ± 0.055 | 2.06 ± 0.057 | 1.93 ± 0.066 | 2.17 ± 0.042
25 | NPLKNKQVLLRLNPYAK [RPL4A] | 1.34 ± 0.17 | 1.21 ± 0.11 | 1.15 ± 0.15 | 1.13 ± 0.18
26 | GKLLRNYTQNIDNLESY [SIR2] | 3.48 ± 0.21 | 3.17 ± 0.27 | 3.09 ± 0.13 | 

Row | Sequence | protein stability index (doa10∆) | protein stability index (pdr5∆) | protein stability index (san1∆) | protein stability index (ubr1∆)
27 | LKKFLQEKMDPNNSRDD [IRR1] | 3.11 ± 0.081 | 3.12 ± 0.068 | 3.19 ± 0.064 | 3.09 ± 0.07
28 | NSEKFVFLLTTRAGGLG [ISW2] | 1.67 ± 0.26 | 1.4 ± 0.13 | 1.11 ± 0.11 | 1.51 ± 0.12
29 | HTSSGSVSFKVFLLLQA [BRR2] | 1.79 ± 0.042 | 1.84 ± 0.044 | 1.5 ± 0.074 | 1.62 ± 0.056
30 | ILNELQPNARALERYDE [SMC1] | 3.3 ± 0.22 | 3.61 ± 0.11 | 3.27 ± 0.078 | 3.49 ± 0.086
31 | HSFIKMLQMKGKLLRNY [SIR2] | 2.19 ± 0.09 | 2.4 ± 0.12 | 2.27 ± 0.16 | 2.15 ± 0.067
32 | MENEFFKVQELLHSKPS [NAS6] | 2.2 ± 0.14 | 2.02 ± 0.082 | 2.68 ± 0.14 | 2.3 ± 0.085
33 | KWGRNQPVNINLDSSIT [YMR129W/POM152] | 2.54 ± 0.094 | 2.7 ± 0.076 | 2.71 ± 0.099 | 2.52 ± 0.07
34 | LTKKEKKEANLFPEQQN [RPL6A] | 3.08 ± 0.072 | 3.2 ± 0.072 | 3.25 ± 0.06 | 3.16 ± 0.048
35 | EIFAFGNIKDLPENIIL [CSN9] | 2.7 ± 0.066 | 2.92 ± 0.056 | 2.8 ± 0.043 | 2.93 ± 0.042
36 | EVQFGLFSPEEVRAISV [RPO21] | 2.85 ± 0.076 | 3.04 ± 0.059 | 3 ± 0.045 | 3.12 ± 0.034
37 | DAKKCIAACTGVPDDKW [FAS1] | 2.63 ± 0.092 | 2.35 ± 0.058 | 2.16 ± 0.11 | 2.78 ± 0.071
38 | IPDIGDLPDTEGLELLG [PRP8] | 3.08 ± 0.14 | 3.15 ± 0.15 | 3.35 ± 0.063 | 3.29 ± 0.046
39 | RSRISSPHGLINLNVDD [SRB4] | 2.47 ± 0.052 | 2.48 ± 0.061 | 2.61 ± 0.075 | 2.15 ± 0.043
40 | WRAHDSSIVAIDWASPE [YGL100W/SEH1] | 2.55 ± 0.092 | 2.8 ± 0.1 | 2.83 ± 0.078 | 2.79 ± 0.068
41 | ISQSQLGKFKNIIASPL [SIN4] | 1.73 ± 0.067 | 1.96 ± 0.049 | 2.01 ± 0.088 | 2.08 ± 0.057
42 | IRRAYLHYIPKYNRYEK [RPS11A] | 2.04 ± 0.07 | 1.72 ± 0.064 | 1.81 ± 0.1 | 1.85 ± 0.044
43 | QLFHNLISIHSRENNSE [YJL039C/NUP192] | 2.6 ± 0.079 | 2.61 ± 0.076 | 2.3 ± 0.11 | 2.88 ± 0.091
44 | KVATEKDFLKAVDKVIS [RPT1] | 3.23 ± 0.074 | 3.26 ± 0.094 | 3.05 ± 0.11 | 3.26 ± 0.053
45 | TKYTDDMATGSNDTTAF [SRB8] | 3.04 ± 0.086 | 3.14 ± 0.087 | 3.45 ± 0.057 | 3.29 ± 0.058
46 | MKLNILDERFASRVALN [IRR1] | 1.54 ± 0.051 | 2.31 ± 0.062 | 2.17 ± 0.11 | 2.03 ± 0.054
47 | LLKLLTRLVQLREFRIT [GRR1] | 1.89 ± 0.053 | 1.27 ± 0.044 | 1.23 ± 0.13 | 1.08 ± 0.052
48 | EECSGRRWNKLCTLNDS [YGL100W/SEH1] | 2.99 ± 0.051 | 3.17 ± 0.053 | 2.82 ± 0.05 | 2.78 ± 0.041
49 | NNSKSRYPMNLLEFIID [ECM29] | 2.5 ± 0.086 | 2.69 ± 0.052 | 2.64 ± 0.075 | 2.92 ± 0.097
50 | ATLSKLKKKYQIILDRF [SIR3] | 2.32 ± 0.065 | 1.95 ± 0.073 | 1.75 ± 0.12 | 1.71 ± 0.061
51 | GVSSPGFSPTSPTYSPT [RPO21] | 2.82 ± 0.069 | 3 ± 0.058 | 2.82 ± 0.057 | 3.05 ± 0.055
52 | LIAHQRSAWNNNNDNDA [GRR1] | 2.25 ± 0.049 | 2.65 ± 0.039 | 2.62 ± 0.05 | 2.65 ± 0.039
